T1: MdASG1-GST (Malus domestica (apple; library from …, UniProt A0A498KLW2 21-457)
T1 sequence: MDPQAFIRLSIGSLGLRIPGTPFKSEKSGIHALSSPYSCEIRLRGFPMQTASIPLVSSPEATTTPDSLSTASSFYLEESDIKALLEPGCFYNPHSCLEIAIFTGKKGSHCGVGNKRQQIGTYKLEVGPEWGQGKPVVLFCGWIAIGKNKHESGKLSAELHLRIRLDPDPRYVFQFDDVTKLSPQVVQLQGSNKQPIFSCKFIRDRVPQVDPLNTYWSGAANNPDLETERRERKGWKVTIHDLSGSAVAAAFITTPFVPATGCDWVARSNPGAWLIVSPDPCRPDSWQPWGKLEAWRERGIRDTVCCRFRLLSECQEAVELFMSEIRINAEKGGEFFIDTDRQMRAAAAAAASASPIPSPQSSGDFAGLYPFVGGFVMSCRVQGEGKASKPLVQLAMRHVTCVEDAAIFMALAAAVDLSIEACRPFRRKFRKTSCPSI

B1: p4MdLOX1a-2 (dsDNA)
DNA 1: AATTACGCAGGGATTACATCTATGTCATCTTAAAGCCAGCTAACTTTCGGGATAAACGATTTTGTAC
DNA 2: GTACAAAATCGTTTATCCCGAAAGTTAGCTGGCTTTAAGATGACATAGATGTAATCCCTGCGTAATT
B2: p4MdLOX1a-2-M6 (dsDNA)
DNA 1: AATTACGCAGGGATTACATCTATGTCATCTTAAAGCCAGCTAACTTTCGGGATAA
DNA 2: TTATCCCGAAAGTTAGCTGGCTTTAAGATGACATAGATGTAATCCCTGCGTAATT
B3: Mutant-M1 (dsDNA)
DNA 1: GATTACATCTATGTCATCTTAAAGCCAGCTAACTTTCGGGATAAATTACCTTATAC
DNA 2: GTATAAGGTAATTTATCCCGAAAGTTAGCTGGCTTTAAGATGACATAGATGTAATC

Target: T1, MdASG1-GST
Assay: EMSA; LightShift Chemiluminescent EMSA kit binding buffer (composition, salt and pH not stated), 24 °C, 15 min
Details: protein: recombinant; tags: GST (pGEX-4T, N-terminal); label: biotin; blunt

Binder	binding result
B1	binds
B2	no binding
B3	no binding
